Measurements taken from patent publication US20230295310A1 (ABCELLERA BIOLOGICS, published 2023).
Substitutions are numbered along the chain they refer to.

B1: mAb 128 (antibody, V domains shown)
VH: EVQLVESGGGLVQPGRSLRLSCAASGFTFDDYTMHWVRQAPGKGLEWVSGISWNSGSIGYADSVKGRFTISRDNAKNSLYLQMNSLRAEDTALYYCAKDSSGYGYYYYYSMDVWGKGTTVTVSS
VL: EIVMTQSPATLSVSPGERATLSCRASQSVSSNLAWYQQKPGQAPRLLIYGASTRATGIPARFSGSGSGTEFTLTISSLQSEDFAVYYCQLYYNWPHFGQGTRLAIK
B2: mAb 127 (antibody, V domains shown)
VH: EVQLVESGGGLVKTGGSHRLSCVASGFSFKKAWMNWVRQAPGKGLEWVGRIKRNSDGGTTDYAAPVKGRFILSRDDSKNTLYLQMNSLKTEDTAVYYCTTLDSSSWYVGYYYMDVWGKGTTVTVSS
VL: DIQMTQSPSSVSASVGDRVTITCRASQDINNWLAWYQQKPGKAPKILIYTASNLQSGVPSRFSGSGSGTDFTLTISTLQPEDFATYFCQQAHGLPITFGQGTRLEIK
B3: mAb 130 (antibody, V domains shown)
VH: B2 VH with H18L, T59A, G68D, I71T
VL: B2 VL with Q3H, V15L, I21F, K39R, I46L, N53S, T77S, F87Y, G93S, E105G
B4: mAb 129 (antibody, V domains shown)
VH: B2 VH with G10D, H18L, S55T, T59A, G68D, I71T
VL: DIHMTQSPSSVSASLGDRVTFTCRASQDINNWLAWYQQKPGKAPRLLIYTASSLQSGVPSRFSGSGSGTDFTLTISSLQPDDFATYYCQQAHSLPITFGQGTRLGIE
B5: mAb 171 (antibody, V domains shown)
VH: B1 VH with D30A, K43Q, G59D, T69I, N77K, S78T, Y105H, Y108F, S110Y, M111L
VL: B1 VL with G50S, A51T, G66R, F83S, L90Q, Y92N, A104E
notes: VH and VL only
B6: mAb 128 (antibody, V domains shown)
VH: B1 VH
VL: B1 VL
notes: VH and VL only
B7: mAb 158 (antibody, V domains shown)
VH: B1 VH with D30A, A40V, I58V, G59D, N77K, S78T, Y105H, Y108F, S110Y, M111L
VL: B1 VL with S26T, G50S, A51T, G66R, F83S, L90Q, Y92N, A104E
notes: VH and VL only
B8: mAb 118 (antibody, V domains shown)
VH: B1 VH with A97S, Y107L, Y108N, M111L
VL: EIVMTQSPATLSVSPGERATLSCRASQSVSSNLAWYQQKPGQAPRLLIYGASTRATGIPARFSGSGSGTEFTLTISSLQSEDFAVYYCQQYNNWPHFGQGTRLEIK
notes: VH and VL only
B9: mAb 121 (antibody, V domains shown)
VH: B1 VH with A24T, D30A, G59D, N77K, Y95F, Y105H, Y108F, S110Y, M111L
VL: B1 VL with A9G, E17K, A43G, G50S, A51T, F83S, L90H, Y92N, A104E
notes: VH and VL only
B10: mAb 126 (antibody, V domains shown)
VH: B1 VH with D30N, A40V, G59D, S110Y
VL: B1 VL with S31I, Y92H, A104E
notes: VH and VL only
B11: mAb 161 (antibody, V domains shown)
VH: B1 VH with F27I, D30A, G59D, N77K, S78T, S85R, Y105H, Y108F, S110Y, M111L
VL: B1 VL with S31N, G50S, A51T, G66R, F83S, L90Q, Y92N, A104E
notes: VH and VL only
B12: mAb 140 (antibody, V domains shown)
VH: QVQLVESGGGVVQPGRSLRLSCAASGFTFSTYGMHWVRQAPGKGLEWVAVIWYDGSHKYYADSVKGRFTISRDNSKNTLYLQMNSLRAEDTAVYYCARTGITGTTAYFYFDYWGQGTLVTVSS
VL: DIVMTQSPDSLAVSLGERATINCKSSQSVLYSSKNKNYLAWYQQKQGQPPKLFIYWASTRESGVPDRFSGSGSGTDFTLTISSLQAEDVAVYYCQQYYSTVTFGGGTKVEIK
notes: VH and VL only

Molecular target: human CD3 (human, UniProt P07766 23-207; P04234 22-171; P09693 23-182)
Sequence (P07766 23-207, chain 1 of 3): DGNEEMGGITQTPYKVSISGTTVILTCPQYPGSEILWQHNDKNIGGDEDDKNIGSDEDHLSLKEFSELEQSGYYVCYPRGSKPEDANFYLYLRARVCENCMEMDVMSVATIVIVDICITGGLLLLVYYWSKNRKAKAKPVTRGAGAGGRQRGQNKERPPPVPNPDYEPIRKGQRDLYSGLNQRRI
Sequence (P04234 22-171, chain 2 of 3): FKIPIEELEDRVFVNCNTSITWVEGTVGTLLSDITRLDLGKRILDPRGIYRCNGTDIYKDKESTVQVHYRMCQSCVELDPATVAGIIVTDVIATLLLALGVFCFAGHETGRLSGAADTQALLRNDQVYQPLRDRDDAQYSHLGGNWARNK
Sequence (P09693 23-182, chain 3 of 3): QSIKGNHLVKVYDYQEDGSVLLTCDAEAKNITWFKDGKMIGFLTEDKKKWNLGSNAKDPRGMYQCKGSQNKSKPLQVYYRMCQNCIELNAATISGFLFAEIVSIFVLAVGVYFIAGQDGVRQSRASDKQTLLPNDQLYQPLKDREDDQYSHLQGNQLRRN
Test: cell-based or functional assay

Binder	CD4 EC50 (nM); CD69/CD25 on human T cells, plate-coated antibody	CD8 EC50 (nM); CD69/CD25 on human T cells, plate-coated antibody
B1	11.6 nM	11.7 nM
B2	10.2 nM	10.3 nM
B3	10.9 nM	10.8 nM
B4	12.5 nM	12.5 nM

Molecular target: T1, human CD3e/d (human, UniProt P07766 23-126; P04234 22-105)
T1 construct: Bought soluble protein; also called hCD3e/d; human CD3/ed (Sino CT038-H2508H)
T1 sequence (P07766 23-126, chain 1 of 2): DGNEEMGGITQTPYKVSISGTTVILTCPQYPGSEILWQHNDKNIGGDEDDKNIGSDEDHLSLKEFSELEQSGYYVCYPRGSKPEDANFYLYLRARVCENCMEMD
T1 sequence (P04234 22-105, chain 2 of 2): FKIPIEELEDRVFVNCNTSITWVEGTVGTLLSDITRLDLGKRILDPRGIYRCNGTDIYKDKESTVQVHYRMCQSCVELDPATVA
Test: SPR (Carterra LSA), mAb on chip
Experimental: High-throughput surface plasmon resonance (SPR) coupled kinetic experiments were performed on a Carterra LSA® instrument equipped with an HC-30M chip type (Carterra, USA). The instrument uses two microfluidic modules, a single-flow cell (SFC) and a 96 printhead, to deliver samples to the chip surface via back-and-forth cycling of a fixed sample volume. An up to 384-ligand array is generated by docking the MFC onto each of the four nested print block locations in a serial manner.
The purified mAbs were immobilized on a Carterra LSA® HC-30M chip by direct coupling. The chip surface was first activated by flowing a freshly prepared 1:1:1 activation mix of 100 mM MES pH 5.5, 100 mM S-NHS, 400 mM EDC for 7 min. mAbs diluted to 10 μg/mL in 10 mM NaOAc pH 4.25+0.01% TWEEN®20 were then injected and printed onto the chip surface simultaneously using the MFC printhead for 10 min. Finally, the chip surface was quenched by flowing 1 M ethanolamine for 7 min (to block the excess reactive esters), followed by 2 wash steps of 15 s each in 25 mM MES pH 5.5. In addition to expressed and purified mAbs, relevant benchmarks and negative control mAbs were also printed on the chip surface.
The data were analyzed using the Carterra Kinetics analysis software. Briefly, the data were referenced with the interstitial reference spots and double-referenced to a buffer cycle, and then fit globally to a 1:1 Langmuir binding model to determine their apparent association (ka) and dissociation (kd) kinetic rate constants and binding affinity constants (KD).

Binder	Kd
B5	18.4 nM
B6	186 nM
B7	10.3 nM
B8	101 nM
B9	21 nM
B10	9.72 nM
B11	24.1 nM
B12	635 nM
